The target in the assay is T1, BIN1 SH3 domain (UniProt O00499 513-593).
T1 construct: C-terminal SH3 domain of bridging integrator-1 (BIN1, amphiphysin 2); printed residues E556, E557, W562, F588 fit the 593-residue BIN1 isoform 1; Used 15N-labelled in the titrations and relaxation experiments; Construct limits, host and tags are in Malki et al., 2017; PDB 5i22 is a cited NMR structure of BIN1 SH3 in a complex, used as the starting point of the docking; also called SH3 domain of …
T1 sequence: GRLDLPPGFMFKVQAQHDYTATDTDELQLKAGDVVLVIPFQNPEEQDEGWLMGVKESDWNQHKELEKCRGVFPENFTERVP
The assay can be described thus: NMR titration; 70 μM 15N-BIN1 SH3 titrated with unlabeled Tau (210–240) peptides (35 to 840 μM); 1H,15N HSQC chemical shift changes; 50 mM phosphate buffer pH 7.3, 20°C; Kd averaged over 7 resonances. Particulars: both partners purified.

One may read the Kd as the concentration at which binding is half-saturated.

B1: Tau (210–240) peptide with K224 and K225 mutated into alanines (peptide, UniProt P10636-8 210-240, looked up)
peptide: SRTPSLPTPPTREPAAVAVVRTPPKSPSSAK
notes: Tau residues 210-240 with K224A and K225A; probably as m2; also called the mutated peptide
On to B1, for which the dissociation constant (Kd) is 429 ± 94 µM.

Values taken from article PMC6246682, “Structural Basis of Tau Interaction With BIN1 and Regulation by Tau Phosphorylation” (Frontiers in Molecular Neuroscience, 2018).
